3 substances from article PMC3666556 can be followed below.

Holding throughout (assay): cross-linking
Assay [1] addresses G129C-apoA-I (human).
For assay [2], the target named is G129C-apoA-I (human). This is another data set of the same source.
The target in assay [3] is K118C-apoA-I (human) (UniProt P02647).
For assay [4] the target is unchanged. This is another data set of the same source.
Assay [5] concerns the target K140C-apoA-I (human).
In assay [6] the target is K140C-apoA-I (human). This is another data set of the same source.

Like-named read-outs stand apart in the source and are kept apart here.

As for G129C-apoA-I (natural protein), the percent homodimer in assay [1] was determined as 22%; in assay [2] it was 38%.

Take “K118C-apoA-I (from UniProt P02647 19-267) (natural protein)”: the percent homodimer was 4% in assay [3] and 17% in assay [4].

K140C-apoA-I (natural protein): the figures for the percent homodimer in assay [5] and in assay [6] were 41% and 65%, respectively.
